Assay results: publication PMC11623273
Where two headings read alike, the source gives them in different places.

B1: E2_S2_1 (design 2K6Z_01), epitope scaffold displaying HCV E2 epitope I (protein)
chain: MGSFTEGWVRFSPGPNAAAYLTLENPGDLPLRLVGARTPVAERVELWETQLINTNGSWHIGSRPVPFLEVPPKGRVELSPGGYYFHLLGLKRPLKAGEEVELDLLFAGGKVLKVVLPVEARGSENLYFQ
B2: soluble HCV E2 ectodomain (sE2) (protein)
chain: GTTTVGGAVARSTNVIAGVFSHGPQQNIQLINTNGSWHINRTALNCNDSLNTGFLAALFYTNRFNSSGCPGRLSACRNIEAFRIGWGTLQYEDNVTNPEDMRPYCWHYPPKPCGVVPARSVCGPVYCFTPSPVVVGTTDRRGVPTYTWGENETDVFLLNSTRPPQGSWFGCTWMNSTGFTKTCGAPPCRTRADFNASTDLLCPTDCFRKHPDATYIKCGSGPWLTPKCLVHYPYRLWHYPCTVNFTIFKIRMYVGGVEHRLTAACNFTRGDRCDLEDRDRSQLSPLLHSTTEWAILPCTYSDLPALSTGLLHLHQNIVDVQYMYGLSPAITKYVVR

What was measured:
Fab AP33 (Mus musculus) [1] = details: other; Disulfide-linked heavy and light Fab chains. No candidate fits and the paper prints no AP33 sequence. PDB 4GAG (murine AP33 Fab with the E2 412-423 peptide) is cited from memory; entities 1 and 2 are assumed to be the antibody chains, and the peptide entity is excluded. The C-terminal double Strep tag on the heavy chain is omitted. The constant-region species of the S2-expressed Fab is not given; modification not given
Fab AP33 (Mus musculus) [2] = details: domain or fragment; Disulfide-linked heavy and light Fab chains. No candidate fits and the paper prints no AP33 sequence. PDB 4GAG (murine AP33 Fab with the E2 412-423 peptide) is cited from memory; entities 1 and 2 are assumed to be the antibody chains, and the peptide entity is excluded. The C-terminal double Strep tag on the heavy chain is omitted. The constant-region species of the S2-expressed Fab is not given; modification not given

| Binder | Kd (Fab AP33 (Mus musculus) [1]) | Kd (Fab AP33 (Mus musculus) [2]) |
| --- | --- | --- |
| B1 | 44.9 nM | – |
| B2 | – | 58.4 nM |
